Question: What does the source list for MMP-2 protease?
Answer: Fraction of cleaved Pro101 determined by WB (Pro101): effective linker cleavage in Pro101; Percentage of cleaved protein determined using WB after incubation with activated MMP-2 protease (Pro055): Pro054, Pro055, Pro061, and Pro064 were sensitive to MMP-2 digestion and protease-dependent removal of masking and half-life extension domains; Percentage of cleaved protein determined using WB after incubation with activated MMP-2 protease (Pro054): Pro054, Pro055, Pro061, and Pro064 were sensitive to MMP-2 digestion and protease-dependent removal of masking and half-life extension domains; Percentage of cleaved protein determined using WB after incubation with activated MMP-2 protease (Pro061): Pro054, Pro055, Pro061, and Pro064 were sensitive to MMP-2 digestion and protease-dependent removal of masking and half-life extension domains; Percentage of cleaved protein determined using WB after incubation with activated MMP-2 protease (Pro064): Pro054, Pro055, Pro061, and Pro064 were sensitive to MMP-2 digestion and protease-dependent removal of masking and half-life extension domains

Chain of MMP-2 protease (P08253 110-660): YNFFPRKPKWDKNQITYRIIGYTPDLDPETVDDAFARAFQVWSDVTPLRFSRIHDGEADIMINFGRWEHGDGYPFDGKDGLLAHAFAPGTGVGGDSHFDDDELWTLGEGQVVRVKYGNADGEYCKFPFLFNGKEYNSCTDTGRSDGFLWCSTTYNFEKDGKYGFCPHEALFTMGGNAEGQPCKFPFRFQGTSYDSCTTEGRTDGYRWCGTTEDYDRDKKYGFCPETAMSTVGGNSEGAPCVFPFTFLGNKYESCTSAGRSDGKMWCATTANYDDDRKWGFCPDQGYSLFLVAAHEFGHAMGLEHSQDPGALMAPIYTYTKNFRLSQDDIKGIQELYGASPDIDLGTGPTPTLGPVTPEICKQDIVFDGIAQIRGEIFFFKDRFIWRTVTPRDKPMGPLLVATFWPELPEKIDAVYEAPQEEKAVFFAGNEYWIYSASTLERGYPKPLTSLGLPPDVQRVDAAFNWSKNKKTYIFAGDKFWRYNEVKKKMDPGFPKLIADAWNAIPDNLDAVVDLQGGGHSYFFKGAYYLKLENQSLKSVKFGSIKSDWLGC
Chain of Pro061 (chain, as listed by the source): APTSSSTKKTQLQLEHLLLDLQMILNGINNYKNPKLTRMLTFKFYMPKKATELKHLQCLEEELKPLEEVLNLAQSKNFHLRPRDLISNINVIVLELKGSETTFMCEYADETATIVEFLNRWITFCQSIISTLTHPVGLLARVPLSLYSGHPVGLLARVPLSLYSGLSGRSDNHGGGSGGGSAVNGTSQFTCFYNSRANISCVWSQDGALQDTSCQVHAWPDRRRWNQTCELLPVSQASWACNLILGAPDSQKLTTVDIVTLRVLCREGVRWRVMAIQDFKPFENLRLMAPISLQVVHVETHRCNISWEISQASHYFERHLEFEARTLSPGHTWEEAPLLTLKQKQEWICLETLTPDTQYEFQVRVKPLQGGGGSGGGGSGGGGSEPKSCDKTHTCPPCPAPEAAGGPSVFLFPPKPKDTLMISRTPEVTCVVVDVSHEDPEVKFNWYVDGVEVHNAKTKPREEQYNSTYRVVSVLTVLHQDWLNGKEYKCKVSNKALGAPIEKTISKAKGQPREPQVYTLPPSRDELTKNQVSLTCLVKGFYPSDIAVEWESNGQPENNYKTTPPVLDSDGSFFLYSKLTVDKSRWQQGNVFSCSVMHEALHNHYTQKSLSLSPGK
Chain of Pro064 (chain, as listed by the source): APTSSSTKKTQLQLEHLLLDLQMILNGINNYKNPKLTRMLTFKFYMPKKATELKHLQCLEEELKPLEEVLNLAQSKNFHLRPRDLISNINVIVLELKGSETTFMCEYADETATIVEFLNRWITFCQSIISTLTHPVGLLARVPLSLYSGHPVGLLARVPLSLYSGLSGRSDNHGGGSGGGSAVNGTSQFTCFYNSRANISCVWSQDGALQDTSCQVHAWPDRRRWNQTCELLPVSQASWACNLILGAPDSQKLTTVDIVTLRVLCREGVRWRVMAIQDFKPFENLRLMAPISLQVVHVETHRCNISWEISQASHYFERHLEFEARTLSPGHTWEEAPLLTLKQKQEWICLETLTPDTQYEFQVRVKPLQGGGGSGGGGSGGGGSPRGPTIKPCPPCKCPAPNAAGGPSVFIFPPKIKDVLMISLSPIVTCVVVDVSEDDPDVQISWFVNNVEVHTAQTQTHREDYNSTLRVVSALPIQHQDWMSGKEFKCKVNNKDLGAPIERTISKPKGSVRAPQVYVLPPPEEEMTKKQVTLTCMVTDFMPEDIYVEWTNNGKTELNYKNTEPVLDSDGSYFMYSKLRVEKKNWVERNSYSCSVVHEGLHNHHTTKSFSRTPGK
Chain of Pro054 (chain, as listed by the source): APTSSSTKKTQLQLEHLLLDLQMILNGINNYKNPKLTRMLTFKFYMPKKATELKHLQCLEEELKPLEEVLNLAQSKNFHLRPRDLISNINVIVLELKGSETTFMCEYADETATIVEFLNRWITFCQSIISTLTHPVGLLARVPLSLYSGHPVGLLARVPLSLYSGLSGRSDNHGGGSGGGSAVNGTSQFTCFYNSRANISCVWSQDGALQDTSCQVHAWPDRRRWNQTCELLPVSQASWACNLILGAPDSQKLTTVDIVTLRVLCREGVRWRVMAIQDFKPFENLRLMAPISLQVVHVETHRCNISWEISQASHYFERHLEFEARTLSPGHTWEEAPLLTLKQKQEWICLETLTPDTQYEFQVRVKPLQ
